{"source": "patent US20210277137A1", "about": "(AbbVie / Abbott, published 2021)", "key": {"[1]": {"target": "T1, human FcγRIIIA (CD16) with V polymorphism on CHO cells (human, UniProt P08637 17-254)", "T1 construct": "whole, on cells; V allotype; also called CD16V", "T1 sequence (P08637 17-254 F176V)": "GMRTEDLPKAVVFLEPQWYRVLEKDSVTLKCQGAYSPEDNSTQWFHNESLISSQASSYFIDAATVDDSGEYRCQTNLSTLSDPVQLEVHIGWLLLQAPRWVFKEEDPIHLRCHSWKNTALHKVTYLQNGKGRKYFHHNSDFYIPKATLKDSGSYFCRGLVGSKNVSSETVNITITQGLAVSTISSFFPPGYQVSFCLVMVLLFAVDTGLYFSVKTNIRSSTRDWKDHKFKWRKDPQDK", "assay": "flow cytometry on CHO cells stably expressing human FcγRIIIA (CD16V), detection with fluorescence-conjugated anti-human F(ab')2 secondary antibody", "protocol": "(§1) Increasing amounts of anti-CD40 human IgG₁ antibodies and their Fc variants were incubated with CHO cells stably expressing different human Fcγ receptors, including FcγRI (CD64), FcγRIIA (CD32a), FcγRIIB (CD32b), and FcγRIIIA (CD16) with either F or V polymorphism. The binding was detected with a fluorescence-conjugated anti-human F(ab′)2 specific secondary antibody (Jackson ImmunoResearch)."}, "[2]": {"target": "T2, human FcγRIIIA (CD16) with F polymorphism on CHO cells (human, UniProt P08637 17-254)", "T2 construct": "whole, on cells; also called CD16F", "T2 sequence (P08637 17-254)": "as the sequence (P08637 17-254 F176V) above, with V160F counted along it", "assay": "flow cytometry on CHO cells stably expressing human FcγRIIIA (CD16F), detection with fluorescence-conjugated anti-human F(ab')2 secondary antibody", "protocol": "as §1"}, "[3]": {"target": "human CD40 on cells (human, UniProt P25942 21-277)", "sequence (P25942 21-277 limits assumed)": "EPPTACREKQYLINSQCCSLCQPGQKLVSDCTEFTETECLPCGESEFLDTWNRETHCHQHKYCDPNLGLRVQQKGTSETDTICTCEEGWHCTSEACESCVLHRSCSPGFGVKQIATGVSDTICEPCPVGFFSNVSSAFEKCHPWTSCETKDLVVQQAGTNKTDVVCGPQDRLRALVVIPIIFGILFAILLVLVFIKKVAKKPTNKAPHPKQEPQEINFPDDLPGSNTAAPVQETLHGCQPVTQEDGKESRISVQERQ", "assay": "cell-based or functional assay"}, "[4]": {"target": "T3, human FcγRIIA (CD32a) on CHO cells (human, UniProt P12318 34-317)", "T3 construct": "whole, on cells", "T3 sequence (looked up)": "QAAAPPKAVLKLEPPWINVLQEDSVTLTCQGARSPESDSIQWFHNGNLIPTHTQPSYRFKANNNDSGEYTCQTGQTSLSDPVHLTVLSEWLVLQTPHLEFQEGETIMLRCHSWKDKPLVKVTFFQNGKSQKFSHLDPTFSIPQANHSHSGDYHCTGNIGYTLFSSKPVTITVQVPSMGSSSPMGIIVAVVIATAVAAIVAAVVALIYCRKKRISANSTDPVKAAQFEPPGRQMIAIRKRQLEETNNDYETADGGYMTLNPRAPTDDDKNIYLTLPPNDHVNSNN", "assay": "flow cytometry on CHO cells stably expressing human FcγRIIA (CD32a), detection with fluorescence-conjugated anti-human F(ab')2 secondary antibody", "protocol": "as §1"}, "[5]": {"target": "T4, CD40-human Fc (huFc) fusion protein (Creative BioMart) (human, UniProt P25942 21-193)", "T4 construct": "bought; also called CD40-huFc; not shown: human Fc", "T4 sequence (P25942 21-193 limits assumed)": "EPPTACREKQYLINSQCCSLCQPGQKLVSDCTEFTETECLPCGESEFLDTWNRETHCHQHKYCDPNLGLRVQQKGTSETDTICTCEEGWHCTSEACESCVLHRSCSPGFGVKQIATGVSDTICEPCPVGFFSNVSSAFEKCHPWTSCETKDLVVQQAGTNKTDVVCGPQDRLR", "assay": "ELISA: antibody titrated into 1 µg/mL CD40-huFc, mixture added to plate coated with HA-tagged CD40L, bound complex detected with HRP anti-human Fc; half-maximal enhancement of the signal of CD40-huFc on CD40L", "text": "After development with TMB (3, 3′, 5, 5′-tetramethylbenzidine) substrate, the plates were read at OD₄₅₀."}, "[6]": {"target": "T5, human FcγRI (CD64) on CHO cells (human, UniProt P12314 16-374)", "T5 construct": "whole, on cells", "T5 sequence (P12314 16-374)": "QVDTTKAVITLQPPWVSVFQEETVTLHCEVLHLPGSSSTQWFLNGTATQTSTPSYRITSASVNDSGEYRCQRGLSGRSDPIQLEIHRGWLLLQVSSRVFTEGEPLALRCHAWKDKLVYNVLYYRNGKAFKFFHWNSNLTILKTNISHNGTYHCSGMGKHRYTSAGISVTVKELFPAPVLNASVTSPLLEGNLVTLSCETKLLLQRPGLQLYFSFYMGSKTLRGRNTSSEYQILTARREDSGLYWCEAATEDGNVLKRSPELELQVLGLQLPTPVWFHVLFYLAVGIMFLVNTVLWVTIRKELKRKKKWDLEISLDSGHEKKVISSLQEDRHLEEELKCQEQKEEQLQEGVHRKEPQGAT", "assay": "flow cytometry on CHO cells stably expressing human FcγRI (CD64), detection with fluorescence-conjugated anti-human F(ab')2 secondary antibody", "protocol": "as §1"}, "[7]": {"target": "T6, human FcγRIIB (CD32b) on CHO cells (human, UniProt P31994 43-310)", "T6 construct": "whole, on cells", "T6 sequence (looked up)": "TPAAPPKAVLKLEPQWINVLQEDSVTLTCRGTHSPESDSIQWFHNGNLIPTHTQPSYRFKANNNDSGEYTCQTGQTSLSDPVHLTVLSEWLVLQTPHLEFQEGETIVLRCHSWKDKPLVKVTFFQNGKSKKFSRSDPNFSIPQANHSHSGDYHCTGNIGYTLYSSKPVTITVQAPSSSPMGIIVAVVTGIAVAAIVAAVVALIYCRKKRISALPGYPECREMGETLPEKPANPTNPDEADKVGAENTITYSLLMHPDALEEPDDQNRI", "assay": "flow cytometry on CHO cells stably expressing human FcγRIIB (CD32b), detection with fluorescence-conjugated anti-human F(ab')2 secondary antibody", "protocol": "as §1"}}}
{"binder": "Humanized muAb9 #5 (antibody, human IgG1, kappa, wild type human IgG1/kappa; also called huAb9-5; huAb9-5 with wild type huIgG1) heavy: not shown light: DAVMTQTPLSLSVTPGQPASISCRSSQSLENTNGNTFLNWYLQKPGQSPQLLIYRVSNRFSGVPDRFSGSGSGTDFTLKISRVEAEDVGVYYCLQVTHVPFTFGQGTKLEIKRTVAAPSVFIFPPSDEQLKSGTASVVCLLNNFYPREAKVQWKVDNALQSGNSQESVTEQDSKDSTYSLSSTLTLSKADYEKHKVYACEVTHQGLSSPVTKSFNRGEC", "values": [{"measurement": "binding result", "setting": "[1]", "value": "binds"}, {"measurement": "binding result", "setting": "[2]", "value": "binds"}, {"measurement": "Maximal activation (OD655) in HEK293 blue CD40 NFκB reporter cells", "setting": "[3]", "value": 0.67, "unit": "OD655"}, {"measurement": "NFκB activation EC50 (SEAP, OD655) in HEK293 blue CD40 NFκB reporter cells", "setting": "[3]", "value": 1.13, "unit": "µg/mL"}, {"measurement": "binding result", "setting": "[4]", "value": "binds"}, {"measurement": "EC50 (read off the curve)", "setting": "[5]", "value": "~0.2", "unit": "µg/mL"}, {"measurement": "EC50 (read off the curve)", "setting": "[6]", "value": "~0.5", "unit": "µg/mL"}, {"measurement": "binding result", "setting": "[7]", "value": "no binding (tested: 100 µg/mL)"}]}
